Experiment [1] has as its target T1, FcγRIIa-R131 (CD32A Protein, Human, Recombinant (167 Arg, His & AVI Tag), Biotinylated) (human, UniProt P12318 34-218, limits assumed, biotinylated).
T1 construct: Bought reagent; not shown: His & AVI tag
T1 sequence (looked up): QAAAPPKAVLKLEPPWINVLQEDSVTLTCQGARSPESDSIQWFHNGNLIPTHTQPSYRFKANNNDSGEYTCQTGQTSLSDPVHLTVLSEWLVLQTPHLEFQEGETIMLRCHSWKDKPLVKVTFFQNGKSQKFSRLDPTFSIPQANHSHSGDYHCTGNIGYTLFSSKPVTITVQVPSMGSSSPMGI
Briefly: SPR (Biacore 8K), His-tagged FcγRIIa-R131 captured on an anti-His chip, antibody as analyte, endpoint response against concentration. On the procedure: Binding of BisG1-FAPα-FERL/DR4-FERR to immobilized human His-tagged FcγRs and FcRn was analyzed by SPR using a Biacore 8K SPR system (Cytiva). To this end, anti-His antibodies were covalently immobilized on the surface of Biacore Series S Sensor Chip CM5 (Cytiva, Cat. #29104988) using the Amine Coupling Kit (Cytiva, Cat. #BR100050) and a His Capture Kit (Cytiva, Cat. #29234602) according to the manufacturer's instructions. To assess antibody binding to immobilized human FcγRs, aliquots of the recombinant His-tagged FcγR proteins (Table 24) were diluted in HBS EP+Buffer pH 7.4 (Cytiva, Cat. #BR100669) and used to capture the FcγR proteins on the surface of the anti-His antibody-coated sensors using a flow rate of 10 μL/min and a contact time of 60 s. Captured levels ranged from 434 to 592 RU. After three start-up cycles of HBS-EP+Buffer, concentration ranges of BisG1-FAPα-FERL/DR4-FERR or IgG1-b12 antibodies (Table 25) were injected to generate binding curves on FcγR-captured sensors (active surface). For each antibody sample, a parallel flow cell without captured FcγRs was included (reference surface), which was used for RU background correction.
All sensorgrams were subtracted by the signal of the third start-up cycle with buffer only (mock analyte). […]
A general note: In SPR one partner is held on a chip, and binding of the other changes the refractive index at the surface.

Experiment [2] concerns the target T2, cynomolgus monkey DR4 with death domain deletion on ExpiCHO-S cells (cynomolgus monkey (Macaca fascicularis)).
T2 construct: also called cynomolgus DR4
T2 chain: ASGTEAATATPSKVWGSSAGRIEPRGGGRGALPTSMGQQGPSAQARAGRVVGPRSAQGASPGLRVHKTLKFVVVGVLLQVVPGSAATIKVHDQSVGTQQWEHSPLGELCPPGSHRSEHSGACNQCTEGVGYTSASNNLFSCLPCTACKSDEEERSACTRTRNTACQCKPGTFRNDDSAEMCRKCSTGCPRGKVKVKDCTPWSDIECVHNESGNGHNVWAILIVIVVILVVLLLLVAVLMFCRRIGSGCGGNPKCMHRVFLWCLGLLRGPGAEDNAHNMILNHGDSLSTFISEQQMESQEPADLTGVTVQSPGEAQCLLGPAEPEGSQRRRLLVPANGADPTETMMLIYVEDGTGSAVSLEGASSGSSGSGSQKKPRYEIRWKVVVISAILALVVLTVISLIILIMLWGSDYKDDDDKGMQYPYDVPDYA
Briefly: flow cytometry, ExpiCHO-S cells expressing cynomolgus monkey DR4, n = 2. How it is done: Binding of BisG1-FAPα-FERL/DR4-FERR, BisG1-DR4-FEAL/b12-FEAR and IgG1-DR4-FERR to DR4 of various species commonly used for nonclinical toxicology studies was assessed by flow cytometry using ExpiCHO-S cells transiently expressing DR4 from different animal species. In contrast to other species, rodents only express one DR which has highest homology with human DR5. Therefore, ExpiCHO-S cells transiently expressing rat and mouse DR protein were used instead. All DR constructs lack the intracellular DD to avoid apoptosis of transfected cells upon DR(4) activation. IgG1-b12 was used as negative control.

B1: IgG1-b12 (antibody)
heavy: not shown
light: EIVLTQSPGTLSLSPGERATFSCRSSHSIRSRRVAWYQHKPGQAPRLVIHGVSNRASGISDRFSGSGSGTDFTLTITRVEPEDFALYYCQVYGASSYTFGQGTKLERKRTVAAPSVFIFPPSDEQLKSGTASVVCLLNNFYPREAKVQWKVDNALQSGNSQESVTEQDSKDSTYSLSSTLTLSKADYEKHKVYACEVTHQGLSSPVTKSFNRGEC
notes: HIV gp120 antibody b12 with wild-type IgG1 Fc; also called IgG-b12
Consider B1, for which the binding result in experiment [1] is given as “binds”.

B2: IgG1-DR4-FERR (antibody, V domains shown)
VH: QVQLQESGPGLVKPSGTLSLTCAVSGGSISSYSWWSWIRQPPGKGLEWIGELYHSGSTNYNPSLKSRVTISVDKSKNQFSLKLRSVTAADTAVYYCVRGVATIDYWGQGTLVTVSS
VL: QSALTQPPSASGSPGQSVTISCTGTSSDVGGYNFVSWYQQDPGKAPKLLIYEVTKRPSGVPDRFSGSKSGNTASLTVSGLQAEDEADYYCSSYAGSNNVMFGGGTKLTVLG
notes: Bivalent monoclonal IgG1 lambda
What is called EC50 is the midpoint of the concentration-response curve. The molecule B2 gave an EC50 in experiment [2] of 1.94 µg/mL.
